“And” between values parts separate entries of the source, which are not always exact repeats. Equal entries are not always repeated. “Also recorded” adds a separate entry of the source. Where two headings read alike, the source gives them in different places.
What was measured:
[1] = test system: Verticillium dahliae; details: low salt in vitro assay conditions; U.S. Pat. No. 6,916,970; cited from earlier work
[2] = test system: Fusarium culmorum; details: low salt in vitro assay conditions; U.S. Pat. No. 6,916,970; cited from earlier work
[3] = test system: F. graminearum PH-1; assay type: cell-based, Fusarium graminearum
[4] = protein-lipid overlay (PIP Strips, PIP Array); assay type: binding; details: for binding to PI3P, PI4P and PI5P: Example 2, PIP Strips, 1 μg/ml protein, FIG. 9
Experimental: (§1) To test the binding properties of MtDefS peptide A (MtDefS Peptide A; SEQ ID NO:4) and MtDef5FL1 (SEQ ID NO:7), a protein-lipid overlay experiment was performed using PIP Strips™ (2×6 cm nitrocellulose membranes) that are spotted with 100 pmol of various biologically active lipids (Echelon Biosciences, Salt Lake City, Utah). Briefly, lipid strips were blocked with 10 mL of blocking buffer, PBS-T/3% fat free BSA for 12-16 h at 4° C. with gentle agitation. The blocking buffer was discarded and the lipid strips were incubated with 5 mL of PBS-T/3% fat free BSA containing 1 μg/ml of MtDef5 peptide A or MtDef5FL1 for 60 min at 4° C. After hybridization, protein solution was discarded and the strips were then washed with PBS-T three times with gentle agitation for 20 minutes each at room temperature. The protein-lipid interactions were detected by subsequently incubating lipid strips with rabbit anti-MtDef5 peptide A derived synthetic peptide (1 μg/ml) diluted in 5 mL of blocking buffer with gentle agitation for 60 min at 4° C. The lipid strips were washed with PBS-T two times with gentle agitation, for 15 minutes each wash, at room temperature. HRP-conjugated Goat Anti-Rabbit IgG secondary antibody (Thermo Scientific, Cat no: SA 1-9510) diluted 1:4000 in blocking buffer was added to the lipid strips and incubated for 60 min at 4° C. After two washes with PBS-T, chemiluminescence was detected using SuperSignal® West Femto Maximum Sensitivity substrate kit (Thermo Scientific, Cat no: 34094) following the manufacturer's protocol.
(§2) To test the binding properties of MtDef5 and its γ-core motif variants, a protein-lipid overlay experiment was performed using PIP Strips™ (2×6 cm nitrocellulose membranes) that are spotted with 100 pmol of various biologically active lipids, respectively (Echelon Biosciences, Salt Lake City, Utah). To determine relative degree of the binding of MtDef5, PIP Array (Echelon Biosciences, UT) pre-spotted with concentration gradient of various phosphoinositides was used. Briefly, lipid strips and arrays were blocked with 10 mL of blocking buffer, PBS-T/3% fat free BSA for 12-16 h at 4° C. with gentle agitation. The blocking buffer was discarded and the lipid strips and arrays were incubated with 5 mL of PBS-T/3% fat free BSA, containing 3 μg/ml of MtDef5 or its variants for 60 min at 4° C. […] The protein-lipid interactions were detected by subsequently incubating lipid strips and arrays with rabbit anti-MtDef5 derived synthetic peptide (1 μg/ml) antibody diluted in 5 mL of blocking buffer with gentle agitation for 60 min at 4° C. […] After two washes with PBS-T, chemiluminescence was detected using SuperSignal® West Femto Maximum Sensitivity substrate kit (Thermo Scientific, Cat no: 34094) following the manufacturer's protocol.

[5] = protein-lipid overlay (PIP Strips); assay type: binding
Experimental: as §1
To test the binding properties of MtDef5 and its γ-core motif variants, a protein-lipid overlay experiment was performed using PIP Strips™ (2×6 cm nitrocellulose membranes) that are spotted with 100 pmol of various biologically active lipids, respectively (Echelon Biosciences, Salt Lake City, Utah). To determine relative degree of the binding of MtDef5, PIP Array (Echelon Biosciences, UT) pre-spotted with concentration gradient of various phosphoinositides was used. Briefly, lipid strips and arrays were blocked with 10 mL of blocking buffer, PBS-T/3% fat free BSA for 12-16 h at 4° C. with gentle agitation. The blocking buffer was discarded and the lipid strips and arrays were incubated with 5 mL of PBS-T/3% fat free BSA, containing 3 μg/ml of MtDef5 or its variants for 60 min at 4° C. After hybridization, protein solution was discarded and the strips and arrays were then washed with PBS-T three times with gentle agitation for 20 minutes each at room temperature. The protein-lipid interactions were detected by subsequently incubating lipid strips and arrays with rabbit anti-MtDef5 derived synthetic peptide (1 μg/ml) antibody diluted in 5 mL of blocking buffer with gentle agitation for 60 min at 4° C. The lipid strips and arrays were washed with PBS-T two times with gentle agitation, for 15 minutes each wash, at room temperature. HRP-conjugated Goat Anti-Rabbit IgG secondary antibody (Thermo Scientific, Cat no: SA 1-9510) diluted 1:4000 in blocking buffer was added to the lipid strips and arrays and incubated for 60 min at 4° C. After two washes with PBS-T, chemiluminescence was detected using SuperSignal® West Femto Maximum Sensitivity substrate kit (Thermo Scientific, Cat no: 34094) following the manufacturer's protocol.

[6] = test system: F. graminearum; assay type: cell-based, Fusarium graminearum
[7] = test system: N. crassa; assay type: cell-based, Neurospora crassa
[8] = test system: F. virguliforme; assay type: cell-based, Fusarium virguliforme
[9] = test system: F. graminearum conidia and germlings; assay type: cell-based, Fusarium graminearum; details: DyLight550-labeled, 3μM, 3 hr, FIG. 17
[10] = phospholipid binding / protein-lipid overlay; details: Example 6, PIP strip, 3 μg/ml protein, FIG. 18A
Experimental: as §2

[11] = protein cross-linking (BS3) oligomerization assay; details: SDS-PAGE, FIG. 19, FIG. 23
Experimental: (§3) To determine the oligomeric status of MtDef5FL1 and its γ-core motif variants, protein cross-linking experiments were performed in the presence or absence of PIPs cross-linked with bis[sulfosuccinimidyl] suberate (BS3) substrate. Briefly, MtDef5 and its γ-core motif variants, prepared in 1× PBS buffer, at 1.5 mg/ml (5 μl) were incubated with 2.73 mM PI(3)P or PI(4)P or PI(5)P (1.5 μl) at room temperature for 30 min. The cross-linking reaction was initiated by addition of freshly dissolved water soluble 12.5 mM BS3 (0.5 μl) and incubated for 30 min at room temperature. After crosslinking, samples were reduced with 100 mM dithiothreitol (DTT) and separated on a 4-20% (Bio-Rad, TGX Stain-Free™ precast gels) SDS-PAGE. The oligomerization pattern was visualized using a Bio-Rad ChemiDoc XRS+ system.

[12] = test system: Alternaria brassicicola; assay type: cell-based; details: Example 6, FIG. 15
[13] = test system: Botrytis cinerea; assay type: cell-based; details: Example 6, FIG. 15
[14] = test system: Neurospora crassa; assay type: cell-based
[15] = test system: Colletotrichum higginsianum; assay type: cell-based; details: Example 6, FIG. 15
[16] = test system: Fusarium virguliforme; assay type: cell-based
[17] = target: the molecule itself; assay: BS3 cross-linking with PIP, SDS-PAGE; self-oligomerization
Experimental: as §3

[18] = Example 6, FIG. 14, read-out: IC50 value against F. graminearum
[19] = activity of the indicated protein against Fusarium graminareum, Table 1, read-out: IC50 (nm)
[20] = Example 2, PIP Strips, 1 μg/ml protein, FIG. 9
[21] = Example 6, PIP strip, 3 μg/ml protein, FIG. 18A

## MsDef1: Alfalfa (Medicago sativa) Defensin 1, SEQ ID NO:79 (RTCENLADKYRGPCFSGCDTHCTTKENAVSGRCRDDFRCWCTKRC; listed as Medicago sativa)
[1]
  IC50, Verticillium dahliae growth: 4 µg/mL
[2]
  IC50, Fusarium culmorum growth: 1 µg/mL

## MtDef4: Medicago truncatula defensin peptide, SEQ ID NO:76 (RTCESQSHKFKGPCASDHNCASVCQTERFSGGHCRGFRRRCFCTTHC; listed as Medicago truncatula) [reference compound]
[3]; Example 6, FIG. 14
  minimal inhibitory concentration (MIC or IC100) against F. graminearum: 6 µM
[3]; [18]
  IC50: 750 to 1500 nM

## MtDef5A: single 50-amino acid MtDef5 defensin peptide A, SEQ ID NO:4 (KLCQKRSTTWSGPCLNTGNCKRQCINVEHATFGACHRQGFGFACFCYKKC; listed as Medicago truncatula)
[4]
  binding to PI3P, PI4P and PI5P: much less affinity than MtDef5FL1
[3]; [19]
  IC50: 500 to 750 nM
[5]; [20]
  binding to PI3,4P2: also binds
  binding to PI3,5P2: also binds
  binding to PI4,5P2: also binds
  binding to PS: fails to bind

## NaD1: Nicotiana alata defensin peptide, SEQ ID NO:81 (RECKTESNTFPGICITKPPCRKACISEKFTDGHCSKILRRCLCTKPC; listed as Nicotiana alata) [reference compound]
[3]; [19]
  IC50: 500 nM

## TPP3: Tomato (Solanum lycopersicum) defensin peptide, SEQ ID NO:83 (QQICKAPSQTFPGLCFMDSSCRKYCIKEKFTGGHCSKLQRKCLCTKPC; listed as Solanum lycopersicum) [reference compound]
[3]; [19]
  IC50: 500 nM

B1: MtDef5FL1: Medicago truncatula protein with MtDef5 defensin peptides A and B connected by a 7-amino acid linker; SEQ ID NO:7, expressed in Pichia (protein, listed as Medicago truncatula)
chain: CQKRSTTWSGPCLNTGNCKRQCINVEHATFGACHRQGFGFACFCYKKCAPKKVEPKLCERRSKTWSGPCLISGNCKRQCINVEHATSGACHRQGIGFACFCKKKC
[6]; 0.180 μM (IC100) protein + 0.5 μm SG, 2 hrs, FIG. 6
  SG uptake (plasma membrane permeabilization): SG uptake was observed
[6]; 0.75 μM MtDef5FL1, 3 hr, FIG. 16
  SG uptake in hyphal cells: SG uptake was visible
[7]
  SG uptake (plasma membrane permeabilization): SG uptake was observed
  SG uptake in hyphal cells: SG uptake was visible
[4]
  binding to PI3P, PI4P and PI5P: strongly binds; also recorded: significantly increases its binding affinity
[4]; Example 6, PIP strip, 3 μg/ml protein, FIG. 18A, FIG. 22
  binding to PI3P, PI4P and PI5P (PIPs): strongly binds
[4]; PIP Array, FIG. 18B
  amount of PIP per spot at which binding to all three PIPs was observed: ≤ 12.5 pmoles per spot
[8]
  SG uptake (plasma membrane permeabilization): SG uptake was observed
[9]
  internalization and localization in fungal cells: is internalized by fungal cells; also recorded: diffuse localization within the cytoplasm
[10]
  binding to phoshatidic acid (PA): binds to a lesser extent
[11]
  oligomerization in presence of PIPs: formed higher-order oligomers only in the presence of PIPs; also recorded: forms higher order oligomers in presence of PIPs
[3]; Example 1, FIG. 5A
  IC100 value against F. graminearum: 0.18 µM
[3]; Example 1, FIG. 5A, read-out: IC50 value against F. graminearum
  IC50: 90 nM
[3]; Example 6, FIG. 14
  minimal inhibitory concentration (MIC or IC100) against F. graminearum: 0.75 µM
[3]; Example 6, FIG. 14, listed as MtDef5
  minimal inhibitory concentration (MIC or IC100) against F. graminearum: 0.7 to 0.75 µM
[3]; [18]
  IC50: 250 to 300 nM
[3]; [19]
  IC50: 90 nM
[3]; against F. graminearum
  potency relative to MtDef4, based on the MIC values: 3 to 5 fold
[3]; microscopic observation after 14-16 hr incubation, FIG. 5B
  concentration inhibiting conidial germination completely (100% growth inhibition): 0.18 µM
[12]
  antifungal activity against Alternaria brassicicola: potent antifungal activity
[5]; [20]
  binding to PI3,4P2: binds to a lesser extent
  binding to PI3,5P2: binds to a lesser extent
  binding to PI4,5P2: binds to a lesser extent
  binding to PS: binding to PS, is generated
[5]; [21]
  binding to PI3,5P2: binds to a lesser extent
  binding to PI4,5P2: binds to a lesser extent
  binding to phosphatidylserine (PS): binds to a lesser extent
[13]
  antifungal activity against Botrytis cinerea (Bci): potent antifungal activity
[14]
  IC100 value against N. crassa: 0.18 µM
  concentration inhibiting conidial germination completely (100% growth inhibition): 0.18 µM
  minimal inhibitory concentration (MIC or IC100) against Neurospora crassa: 0.7 to 0.75 µM and 0.75 µM
[14]; read-out: IC50 value against N. crassa
  IC50: 90 nM
[14]; read-out: IC50 value against Neurospora crassa
  IC50: 250 to 300 nM
[15]
  antifungal activity against Colletotrichum higginsianum: potent antifungal activity
[16]
  IC100 value against F. virguliforme: 0.18 µM
  antifungal activity against F. virguliforme: potent antifungal activity
  concentration inhibiting conidial germination completely (100% growth inhibition): 0.18 µM
[16]; read-out: IC50 value against F. virguliforme
  IC50: 90 nM

B2: MtDef5FL1_V1 (other)
chain: KLCQAASTTWSGPCLNTGNCKRQCINVEHATFGACAAQGFGFACFCYKKCAPKKVEPKLCEAASKTWSGPCLISGNCKRQCINVEHATSGACAAQGIGFACFCKKKC
notes: Alanine variant expressed in P. pastoris; also called MtDef5FL1 γ-core motif variant V1
[17]
  binding result: no binding (tested: 1.5 mg/ml protein)
[11]
  oligomerization in presence of PIPs: no formation of higher order oligomers

Reference: patent US20190194268A1 (DONALD DANFORTH PLANT SCIENCE CENTER, published 2019)
